# Results from patent US20080160035A1 (Regeneron, published 2008).
# Changes are numbered by the printed parent chain.
# T1: dimeric hIL-4R-hFc (human, UniProt P24394 26-232)
# T1 construct: also called hIL-4R-Fc; not shown: human Fc (hFc)
# T1 sequence: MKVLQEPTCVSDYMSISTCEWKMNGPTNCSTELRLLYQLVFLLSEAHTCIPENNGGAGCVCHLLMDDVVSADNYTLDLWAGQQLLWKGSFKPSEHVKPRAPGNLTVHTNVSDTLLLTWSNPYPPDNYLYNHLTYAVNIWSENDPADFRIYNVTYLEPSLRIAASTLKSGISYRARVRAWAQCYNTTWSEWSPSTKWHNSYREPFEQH
# T2: mouse IL-4R (mouse, UniProt P16382 26-233, limits assumed)
# T2 sequence (looked up): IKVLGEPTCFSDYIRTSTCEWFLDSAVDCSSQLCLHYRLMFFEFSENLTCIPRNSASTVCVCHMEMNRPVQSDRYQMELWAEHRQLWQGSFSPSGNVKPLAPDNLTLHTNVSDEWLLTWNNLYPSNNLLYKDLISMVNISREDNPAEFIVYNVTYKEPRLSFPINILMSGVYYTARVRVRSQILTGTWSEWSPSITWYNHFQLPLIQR
# T3: monomeric hIL-4R (R&D Systems) (human, UniProt P24394 26-231)
# T3 construct: Bought (R&D Systems); also called hIL-4R monomer
# T3 sequence: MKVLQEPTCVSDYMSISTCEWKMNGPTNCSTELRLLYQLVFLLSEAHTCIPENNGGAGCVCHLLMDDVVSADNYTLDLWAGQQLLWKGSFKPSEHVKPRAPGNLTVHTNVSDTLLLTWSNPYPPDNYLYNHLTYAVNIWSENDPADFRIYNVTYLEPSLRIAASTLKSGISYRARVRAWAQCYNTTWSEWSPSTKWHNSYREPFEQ
# T4: hIL-4R on cells (STAT6-transfected HEK293, TF1, TF1/A12) (human, UniProt P24394 26-825)
# T4 sequence (looked up): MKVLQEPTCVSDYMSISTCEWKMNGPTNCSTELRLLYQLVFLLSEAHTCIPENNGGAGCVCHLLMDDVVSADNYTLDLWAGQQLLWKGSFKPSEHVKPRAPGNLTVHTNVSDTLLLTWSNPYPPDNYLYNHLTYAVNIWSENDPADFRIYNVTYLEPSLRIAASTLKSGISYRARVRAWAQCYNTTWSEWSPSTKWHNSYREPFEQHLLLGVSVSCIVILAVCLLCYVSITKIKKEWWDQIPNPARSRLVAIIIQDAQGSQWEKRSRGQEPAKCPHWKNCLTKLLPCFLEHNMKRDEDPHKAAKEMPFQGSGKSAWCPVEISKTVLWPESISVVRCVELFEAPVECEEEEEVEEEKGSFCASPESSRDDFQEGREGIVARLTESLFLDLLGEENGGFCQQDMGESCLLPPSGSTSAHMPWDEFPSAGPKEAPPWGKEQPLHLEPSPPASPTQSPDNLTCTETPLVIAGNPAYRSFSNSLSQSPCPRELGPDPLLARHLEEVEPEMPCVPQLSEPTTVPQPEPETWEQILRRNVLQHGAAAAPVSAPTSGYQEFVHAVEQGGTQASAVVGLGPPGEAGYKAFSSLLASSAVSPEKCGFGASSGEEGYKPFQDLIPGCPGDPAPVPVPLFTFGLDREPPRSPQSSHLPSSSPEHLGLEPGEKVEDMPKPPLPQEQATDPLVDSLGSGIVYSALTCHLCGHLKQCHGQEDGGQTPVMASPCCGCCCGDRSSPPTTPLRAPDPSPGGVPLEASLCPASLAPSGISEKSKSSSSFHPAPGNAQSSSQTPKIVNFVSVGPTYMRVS
# B1: VAB 16F3-1 (antibody, V domains shown)
# VH: QVQLVQSGAEVKKPGASVKVSCKASGYTFNSYGISWVRQAPGQGLEWMGWIRTYNGNTNYAQKLQGRVTMTTDTSTSTAYMELRSLRSDDTAVYYCARDEARIVVAGTTPYYYGMDVWGQGTTVTVSS
# VL: DIQMTQSPSSVSASVGDRVTITCRASQDISIWLAWYQQSPGKAPKLLINVASRLQSGVPSRFSGSGSGTDFTLTINSLQPEDFVTYYCQQANSFPITFGQGTRLATK
# notes: Apparently tested with mouse constant region (anti-mouse IgG capture/detection)
# B2: VAK8G11-13 (antibody, V domains shown)
# VH: QVRLVESGGGVVQPGGSLRLSCAASGFIFRSYGMHWVRQAPGRGLEWVAVISYDGSKTFYVDSVKVRFTISRDNSKNTLYLEMNSLRVDDTAVYFCVKEGRSGSWFDPWGQGTLVAVSS
# VL: DIHMTQSPSSLSASVGDRVTITCRASQAINNFLAWFQQKPGKTPKSLIFATSSLQSGVPSRFSGSGSGTDFTLTISSLQPEDFATYYCQQYNSHPWTFGQGTKVEIK
# notes: as for B1
# B3: VAK5H4-4 (antibody, V domains shown)
# VH: B2 VH with A23V, I28T
# VL: B2 VL with H3Q, K45N, G64A, S65G
# notes: as for B1
# B4: VAK7G8-5 (antibody, V domains shown)
# VH: B2 VH with A23T
# VL: B2 VL with K107R
# notes: as for B1
# B5: VX 3F7-6 (antibody, V domains shown)
# VH: EVQLVESGGGLVQPGGSLRLSCAASGFTFSSFWMTWVRQAPGKGLEWVANIKQDGSEKYYVDSVKGRFTISRDNAKNSLYLQMNSLRAEDTAVYYCARDPGRTMVRGGIRYYYGMDVWGQGTTVTVSS
# VL: DIQMTQSPSSVSASVGDRVTISCRASQGVSSWLAWYQQKPGNAPKLLISAASSIQSGVPSRFSGSGSGTDFTLTISSLQPEDFATYYCQQANSFPLTFGGGTKVEIK
# notes: 395/397; 399/401 without saying which was assayed; Apparently tested with mouse constant region (anti-mouse IgG capture/detection)
# B6: VAB 15C8-17 (antibody, V domains shown)
# VH: QVQLVESGGGLVQPGGSLRLSCAVSGFTISDHYMSWIRQAPGKGLEWISYISSSGSKIYYADSVKGRFTISRDNAKNSLFLQMNSLRAEDTAVYYCARTRQLVGDYWGQGTLVTVSS
# VL: DIQLTQSPSFLSASVGDRVTITCWASQGISSYLAWYQQKPGKAPKLLIFAASTLQSGVPSRFSGSGSGTEFTLTISSLQPEDFATYYCQQLNSYPLTFGGGTKVEIR
# notes: as for B1
# B7: VAB 10G8-19 (antibody, V domains shown)
# VH: QVQLVQSGAEVKKPGASVKVSCKASRYTFTSYDINWVRQATGQGLEWMGWMNPNSGNTGYAQKFQGRVTMTRNTSTSTAYMELSSLRSEDTAVYYCARVRRFFDYWGQGTLVTVSS
# VL: B6 VL with S30I, F49Y, Q55H, Q89H, N92K, L96I, G100Q, K103R, V104L, R107K
# notes: as for B1
# B8: VAB 10C1-5 (antibody, V domains shown)
# VH: QVQLVETGGDLVRPGGSLRLSCTASGFTLSDYYMSWIRQAPGKGLEWVSYIRRSGNTIYYADSVKGRFTISRDNAKNSLYLQMNSLRAEDTAVYYCARGGDWADVWGQGTTVTVSS
# VL: DIQMTQSPSSLSASVGDRVTITCRASQGISIYLAWFQQKPGKAPKSLIYAASSLQRGVPSKFSGSGSGTDFTLTISSLQPEDFATYYCQQYNSYPYTFGQGTKLEIK
# notes: as for B1
# Molecular target: T1, dimeric hIL-4R-hFc
# Assay: SPR (BIAcore 2000); antibody captured, dimeric hIL-4R-hFc injected
# Description: (§1) Binding affinity (KD) of selected antibodies with respect to hIL-4R was determined using a real-time biosensor surface plasmon resonance assay (BIAcore™ 2000). Briefly, antibody was captured on a goat anti-mouse (GAM) IgG polyclonal antibody surface created through direct chemical coupling of the GAM IgG to a BIAcore™ chip to form a captured antibody surface. […] Binding of antigen to antibody and dissociation of the bound complex, were monitored in real time. Equilibrium dissociation constants (KD) and dissociation rate constants were ascertained by performing kinetic analysis using BIA evaluation software. BIA evaluation software was also used to calculate the half-life of antigen/antibody complex dissociation (T_{1/2}). […] The binding affinity of anti-hIL-4R antibodies to either mouse or monkey (Macaca fascicularis) IL-4R was also tested.
Binder,Kd [nM],T1/2 dimeric [h]
B1,0.003,41
B2,0.002,63
B3,0.004,30
B4,0.009,25
B5,0.654,2.7
B6,0.045,3.6
B7,0.052,2
B8,0.051,6.7

# Molecular target: T1, dimeric hIL-4R-hFc
# Assay: SPR; reduction of hIL-4 (50 nM) binding to captured hIL-4R-hFc after antibody; competitor hIL-4
# Excerpt: Purified hIL-4R-hFc molecules were captured by goat anti-human IgG polyclonal antibody immobilized on CM-5 to a density of 260 RU, to prepare a receptor-coated surface.
row,Binder,% Inhibition (BIAcore) [%]
1,B1,97
2,B2,95
3,B3,96
4,B4,95
5,B5,86
6,B6,97
7,B7,85
8,B8,93

# Molecular target: T2, mouse IL-4R
# Assay: binding affinity test of Example 2 (method not restated)
row,Binder,binding result
1,B1,no binding
2,B2,no binding
3,B3,no binding
4,B4,no binding
5,B5,no binding
6,B6,no binding
7,B7,no binding
8,B8,no binding

# Molecular target: T3, monomeric hIL-4R (R&D Systems)
# Assay: SPR (BIAcore 2000); antibody captured, monomeric hIL-4R injected
# Description: as §1
Binder,Kd [nM],T1/2 monomeric [h]
B1,0.02,4.23
B2,0.03,14
B3,0.02,16
B4,0.06,8
B5,3.91,0.267
B6,0.82,0.25
B7,11.4,0.0333
B8,4.47,0.1

# Molecular target: T4, hIL-4R on cells (STAT6-transfected …)
# Assay: cell-based or functional assay
Binder,"STAT6 Bioassay IC50 (HEK293 STAT6 luciferase, 40 pM hIL-13) [nM]","TF1 Bioassay IC50 (proliferation, 150 pM hIL-13) [nM]"
B1,0.018,0.079
B2,0.06,0.42
B3,0.084,0.24
B4,0.04,0.36
B5,> 10,
B6,0.2,2.6
B7,0.97,
B8,1,

# Molecular target: T1, dimeric hIL-4R-hFc
# Assay: ELISA; antibody titrated against 25 pM hIL-4R-Fc, free receptor caught on hIL-4 plate
# Description: Concentration of free hIL-4R-Fc (no antibody bound) was determined using a hIL-4R-specific sandwich ELISA. […] After a one-hour incubation at room temperature, the detection plate was washed and plate-bound hIL-4R-hFc was detected using HRP conjugated goat anti-hFc polyclonal antibodies and developed using colorimetric substrates such as BD OptEIA™ (BD Biosciences Pharmingen, San Diego, Calif.). After the reaction was stopped with 1 M phosphoric or sulfuric acid, absorbances at 450 nm were recorded and the data were analyzed using GraphPad™ Prism software.
row,Binder,IC50 [nM]
1,B1,0.019
2,B2,0.026
3,B3,0.033
4,B4,0.027
5,B5,0.274
6,B6,0.029
7,B7,0.018
8,B8,0.034

# Molecular target: T4, hIL-4R on cells (STAT6-transfected …)
# Assay: cell-based or functional assay
# Remark: another data set of the same source
Binder,"STAT6 Bioassay IC50 (HEK293 STAT6 luciferase, 10 pM hIL-4) [nM]","TF1/A12 Bioassay IC50 (proliferation, 20 pM hIL-4) [nM]","TF1 Bioassay IC50 (proliferation, 50 pM hIL-4) [nM]"
B1,0.032,0.067,0.046
B2,0.08,,0.16
B3,0.132,0.182,0.15
B4,0.06,,0.13
B5,> 10,> 50,
B6,0.32,4.7,0.44
B7,1.8,12.8,
B8,1.9,22.8,
